The values that follow come from US20210292386A1.

Where two headings read alike, the source gives them in different places.

Holding throughout (test): cell-based or functional assay
Assay [1] has as its target T1, high-affinity IL2 receptor (IL2Rαβγ) of the mouse T cell line CTLL-2 (mouse) (UniProt P01590).
T1 sequence (looked up) 1: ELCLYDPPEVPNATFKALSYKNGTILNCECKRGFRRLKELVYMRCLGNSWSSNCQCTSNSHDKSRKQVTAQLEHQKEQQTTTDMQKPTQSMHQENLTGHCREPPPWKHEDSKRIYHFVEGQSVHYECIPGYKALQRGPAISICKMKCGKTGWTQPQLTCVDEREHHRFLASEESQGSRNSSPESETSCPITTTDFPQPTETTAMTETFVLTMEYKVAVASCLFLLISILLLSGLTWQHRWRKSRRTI
T1 sequence (looked up) 2: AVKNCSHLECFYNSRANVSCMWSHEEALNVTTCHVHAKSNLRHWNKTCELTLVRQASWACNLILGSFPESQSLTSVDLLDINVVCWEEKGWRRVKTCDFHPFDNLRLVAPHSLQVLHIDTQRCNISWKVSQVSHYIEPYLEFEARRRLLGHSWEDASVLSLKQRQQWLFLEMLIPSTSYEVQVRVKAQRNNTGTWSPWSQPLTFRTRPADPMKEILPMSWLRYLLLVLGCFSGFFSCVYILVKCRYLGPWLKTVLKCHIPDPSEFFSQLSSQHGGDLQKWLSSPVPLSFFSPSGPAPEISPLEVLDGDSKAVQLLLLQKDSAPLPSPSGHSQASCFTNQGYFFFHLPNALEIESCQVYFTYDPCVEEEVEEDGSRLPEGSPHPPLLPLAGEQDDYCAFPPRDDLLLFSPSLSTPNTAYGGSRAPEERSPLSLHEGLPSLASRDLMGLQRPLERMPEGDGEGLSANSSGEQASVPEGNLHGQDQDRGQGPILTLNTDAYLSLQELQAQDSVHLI
T1 sequence (looked up) 3: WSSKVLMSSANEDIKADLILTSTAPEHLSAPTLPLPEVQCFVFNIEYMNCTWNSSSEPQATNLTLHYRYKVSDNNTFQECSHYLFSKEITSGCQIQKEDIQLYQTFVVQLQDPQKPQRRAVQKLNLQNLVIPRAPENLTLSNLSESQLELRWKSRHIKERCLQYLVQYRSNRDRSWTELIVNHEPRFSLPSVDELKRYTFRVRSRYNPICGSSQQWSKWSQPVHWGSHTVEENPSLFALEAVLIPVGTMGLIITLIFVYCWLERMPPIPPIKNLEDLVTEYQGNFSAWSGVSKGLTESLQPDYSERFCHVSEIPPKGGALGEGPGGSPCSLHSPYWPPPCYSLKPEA

Assay [2] has as its target T1, high-affinity IL2 receptor (IL2Rαβγ) of the mouse T cell line CTLL-2 (mouse). The source holds these as a separate data set.
The target in assay [3] is intermediate-affinity IL2 receptor (IL2Rβγ), human (human) (UniProt P14784).
Assay [4] addresses high-affinity IL2 receptor (IL2Rαβγ), human, on CD4+CD25+FoxP3+ regulatory T cells (human) (UniProt P01589). Also on record: unit not given beside the values.
Assay [5] has as its target intermediate-affinity IL2 receptor (IL2Rβγ), human (human) (UniProt P14784). Also on record: unit not given beside the values.

Sequence of UniProt P14784 (P14784 27-551, chain 1 of 2): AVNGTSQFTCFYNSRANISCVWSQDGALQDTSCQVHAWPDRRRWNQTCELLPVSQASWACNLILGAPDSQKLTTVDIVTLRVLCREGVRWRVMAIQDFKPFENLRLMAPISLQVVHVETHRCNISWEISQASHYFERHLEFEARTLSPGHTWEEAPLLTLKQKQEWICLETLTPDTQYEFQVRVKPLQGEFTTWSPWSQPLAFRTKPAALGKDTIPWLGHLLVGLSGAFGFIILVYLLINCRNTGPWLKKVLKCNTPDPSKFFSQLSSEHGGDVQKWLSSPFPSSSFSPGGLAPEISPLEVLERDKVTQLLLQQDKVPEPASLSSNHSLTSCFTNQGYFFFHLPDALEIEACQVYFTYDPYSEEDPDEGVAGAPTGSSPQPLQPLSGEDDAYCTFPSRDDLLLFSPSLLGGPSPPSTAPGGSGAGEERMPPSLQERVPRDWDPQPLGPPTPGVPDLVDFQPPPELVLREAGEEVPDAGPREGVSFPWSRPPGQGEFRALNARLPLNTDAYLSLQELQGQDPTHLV
Sequence of UniProt P14784 (P31785 23-369, chain 2 of 2, further chain): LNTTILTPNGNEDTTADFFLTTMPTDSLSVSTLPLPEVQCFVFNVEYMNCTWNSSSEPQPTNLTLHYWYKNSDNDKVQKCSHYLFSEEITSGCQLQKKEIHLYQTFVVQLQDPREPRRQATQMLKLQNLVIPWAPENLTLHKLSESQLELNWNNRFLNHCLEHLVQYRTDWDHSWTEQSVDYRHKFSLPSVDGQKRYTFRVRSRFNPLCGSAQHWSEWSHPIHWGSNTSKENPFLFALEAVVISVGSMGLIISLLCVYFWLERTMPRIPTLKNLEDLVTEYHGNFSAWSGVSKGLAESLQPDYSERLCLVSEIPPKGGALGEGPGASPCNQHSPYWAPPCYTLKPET
Sequence of UniProt P01589 (P01589 22-272, chain 1 of 3): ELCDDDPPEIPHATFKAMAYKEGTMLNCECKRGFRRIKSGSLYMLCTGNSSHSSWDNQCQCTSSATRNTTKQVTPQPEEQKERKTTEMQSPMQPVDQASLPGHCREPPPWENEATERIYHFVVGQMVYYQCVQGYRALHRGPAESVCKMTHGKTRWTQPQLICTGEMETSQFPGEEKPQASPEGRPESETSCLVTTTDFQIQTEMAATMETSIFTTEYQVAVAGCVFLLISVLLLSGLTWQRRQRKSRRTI
Sequence of UniProt P01589 (P14784 27-551, chain 2 of 3, further chain): as the sequence (P14784 27-551, chain 1 of 2) above
Sequence of UniProt P01589 (P31785 23-369, chain 3 of 3, further chain): as the sequence (P31785 23-369, chain 2 of 2, further chain) above

hAlb-hIL2 (ligand) registered an EC50 of CTLL-2 proliferation (%-supernatant) in assay [1] of 0.115. The substance further displayed an EC50 of CTLL-2 proliferation (%-supernatant) in assay [2] of 0.214. In assay [3], the EC50 of TF-1 IL2Rβγ proliferation (%-supernatant) was determined as 2.35. The substance further returned an EC50 of STAT5 phosphorylation, CD4+CD25+FoxP3+ Treg (%-supernatant) in assay [4] of 0.111. In assay [5], the EC50 of STAT5 phosphorylation, CD4+CD25- T helper cells (%-supernatant) turned out to be 4.36 and the EC50 of STAT5 phosphorylation, CD8+ cytotoxic T cells (%-supernatant) came to 6.84.
